Target: T1, long isoform of the mouse leptin receptor (Mus musculus, UniProt P48356)
T1 construct: expressed in transfected cells; host or cells: PC12 (rat pheochromocytoma), transient electroporation with pMET7-mLRlo
T1 sequence (P48356 22-1162): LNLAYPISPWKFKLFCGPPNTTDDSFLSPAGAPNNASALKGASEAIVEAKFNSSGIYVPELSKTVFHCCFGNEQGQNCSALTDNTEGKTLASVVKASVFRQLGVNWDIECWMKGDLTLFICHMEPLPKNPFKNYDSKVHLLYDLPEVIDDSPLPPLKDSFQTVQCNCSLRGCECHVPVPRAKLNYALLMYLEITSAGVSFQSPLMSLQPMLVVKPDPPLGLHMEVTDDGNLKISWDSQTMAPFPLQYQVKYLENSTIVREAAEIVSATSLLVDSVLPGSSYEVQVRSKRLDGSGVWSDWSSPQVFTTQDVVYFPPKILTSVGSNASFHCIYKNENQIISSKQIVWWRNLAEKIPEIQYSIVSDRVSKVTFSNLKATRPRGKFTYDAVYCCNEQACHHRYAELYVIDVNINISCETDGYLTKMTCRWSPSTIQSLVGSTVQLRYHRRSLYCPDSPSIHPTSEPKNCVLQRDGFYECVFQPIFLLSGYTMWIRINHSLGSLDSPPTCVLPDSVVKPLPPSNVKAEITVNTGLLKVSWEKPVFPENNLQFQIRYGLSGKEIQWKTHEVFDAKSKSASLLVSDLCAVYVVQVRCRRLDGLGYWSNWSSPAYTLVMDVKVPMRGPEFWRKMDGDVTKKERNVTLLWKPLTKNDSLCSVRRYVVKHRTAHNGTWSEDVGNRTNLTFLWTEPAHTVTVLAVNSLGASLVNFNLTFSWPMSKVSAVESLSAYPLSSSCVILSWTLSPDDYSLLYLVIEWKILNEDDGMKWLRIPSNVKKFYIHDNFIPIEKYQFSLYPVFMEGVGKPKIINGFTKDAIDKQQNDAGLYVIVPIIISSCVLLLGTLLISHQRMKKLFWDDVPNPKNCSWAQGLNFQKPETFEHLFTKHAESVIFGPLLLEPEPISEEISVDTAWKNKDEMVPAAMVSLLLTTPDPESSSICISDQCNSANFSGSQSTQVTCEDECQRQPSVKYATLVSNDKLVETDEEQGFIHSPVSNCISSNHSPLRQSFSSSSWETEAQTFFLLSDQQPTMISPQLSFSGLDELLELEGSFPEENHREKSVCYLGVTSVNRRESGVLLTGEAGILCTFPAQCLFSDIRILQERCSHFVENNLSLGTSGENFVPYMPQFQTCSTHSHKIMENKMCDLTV
Test: rNPY promoter luciferase reporter in PC12 cells transiently transfected with pMET7-mLRlo
Format: cell-based
Description: FIG. 1A. Leptin-induced NPY promoter activity in transiently transfected PC12 cells. PC12 cells were co-transfected with control vector (columns 1 and 2), pMET7-mLRsh (columns 3 and 4) or pMET7-mLRlo (columns 5 and 6) together with the pGL3-rNPYluc reporter. The different subcultures were mock stimulated (growth medium alone) or treated with mouse leptin (100 ng/ml) for 72 hours. Luciferase activity in cell lysates is shown; data represent the mean±standard deviation values of assays performed in triplicate.
FIG. 1B. Forskolin co-stimulation on leptin-induced pGL3-rNPY luciferase activity. PC12 cells were transiently co-transfected with pMET7-mLRlo and the pGL3-rNPYluc reporter. […]
In order to study leptin receptor signaling in a neuro-endocrine-related cell type, we transiently transfected PC12 cells with expression vectors for the long or the short isoform of the mouse leptin receptor (pMET7-mLRlo and pMET7-mLRsh respectively) and monitored gene induction by leptin. […]
Luciferase activity was measured in transfected cells by chemiluminescence. […] 70 μl of luciferase substrate buffer (20 mM Tricine; 1.07 mM (MgCO3)4Mg(OH)25H2O; 2.67 mM MgSO4; 0.1 mM EDTA; 33.3 mM DTT; 270 μM Coenzyme A (lithium salt); 470 μM Luciferin (Duchefa); 530 μM ATP, final pH 7.8) was added to 100 μl of cell lysate and measured for 5 seconds by TopCount.NXT Chemiluminescence Counter (Packard).

B1: leptin: mouse leptin (R&D Systems), ob gene product, used on PC12 cells at 100 ng/ml (protein)
chain: VPIQKVQDDTKTLIKTIVTRINDISHTQSVSAKQRVTGLDFIPGLHPILSLSKMDQTLAVYQQVLTSLPSQNVLQIANDLENLRDLLHLLAFSKSCSLPQTSGLQKPESLDGVLEASLYSTEVVALSRLQGSLQDILQQLDVSPEC
- luciferase activity, rNPY reporter (PC12 cells co-transfected with pGL3-rNPYluc and pMET7-mLRlo, leptin alone): moderate stimulation
- optimal co-stimulatory concentration (leptin plus forskolin, rNPY luciferase): 100 ng/mL
